In the supplement of paper PMC9170038:

Tested on: MS2 coat protein
Test: apparent KD of MS2 coat protein; higher = weaker reporter binding
Details: Eterna round: R107
Method in brief: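 Apparent KD was obtained for each design as the median of normalised binding-curve fits over its clusters. RNA switches transcribed on-chip from Illumina sequencing clusters were titrated with SNAP-549-labelled MS2 coat protein (twofold steps, 0.7 or 1.5 nM to 3 µM) in 100 mM Tris-HCl pH 7.5, 80 mM KCl, 4 mM MgCl2, without or with constant ligand.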

[1] = input ligand: theophylline 20 uM
[2] = input ligand: tryptophan 2.4 mM
[3] = input ligand: theophylline 2 mM

Row | Sequence | apparent KD of MS2 coat protein (input ligand: arginine 13.2 mM) | apparent KD of MS2 coat protein [1] | apparent KD of MS2 coat protein [2] | apparent KD of MS2 coat protein (input ligand: none) | apparent KD of MS2 coat protein [3]
1 | AUCGUACCUGAGGAUACCAGCAUGUGAUCAUAACAUGAGGAUCACCCAUGUAAUCAGUGAUGCCCUUGGCAGCUUGAUCGGUACA [Same State - Theophylline B (Freestyle 11)] | 53.4 nM | 83.6 nM | 63.8 nM |  | 
2 | GAUUUUACAAAAGUAAAAUCAGUGGGUGAACGAGGACCGGUACGGCCGCCACUCGGACAUGAGGAUCACCCAUGUCCAUGUGAAA [AstrosExyTryA#21] | 17.1 nM | 18.4 nM | 61.9 nM | 15.7 nM | 20.6 nM
3 | GUAUAUUAUAGAAGGAGCGUCGAAAAUGGGUAAACAUGAGGAUCACCCAUGUAAAGGGAACGACAGGUAGGUCGCUAUAAUAUAC [AstromonsSSArgB#14] | 154 nM | 233 nM | 220 nM | 218 nM | 311 nM
4 | GGUAUAUAGGCGGCCGCCACUGAUUUUCAUAUAUAUAUAACAUGAGGAUCACCCAUGUAGAUAUACAGGACCGGGCCUAUAUAUU [aaaC] | 16.1 nM | 17.7 nM |  |  | 16.4 nM
5 | CUACAUUUGUAGAAACCGGUCACCAUUACUCGAGGACCGGUACGGCCGCCACUCGUGUCAUGUGAUACAUGAGGAUCACCCAUGU [Tryptophan A 10] | 21.7 nM | 26.2 nM |  |  | 27.1 nM
6 | AAAGCUACGUAAAAUAAAACUACAUGUGAAGGAGCGCGCGAAAGCGCAGGUAGGUCGCACAUGAGGAUCACCCAUGUCGUAGCAA [MAT - Exclusion Arginine A - Mod of Eli - D5] | 43.9 nM | 101 nM | 52.2 nM | 63.4 nM | 78.2 nM
7 | UUUGAUAGGACAGAUACCAGCGUGUUAUAAAACAUGAGGAUCACCCAUGUAGUGAUCAAGCGCCCUUGGCAGCUGGUUUGUUAGG [7.J] | 73.5 nM | 220 nM | 207 nM |  | 
8 | GCACAAGAUGGAAGGAGCGCUGGAAAAGGUCACAUGAGGAUCACCCAUGUUCUCCGAACCGAGCAGGUAGGUCGCUAUCUUGUGC [#09 Same State - Arginine B] | 37.5 nM | 59.9 nM | 41.7 nM | 41.9 nM | 50.7 nM
9 | AUAACAUGAGGAUCACCCAUGUAGAGUGAUACCAGACUACGUAAUGUCCCUUGGCAGCACAAGUAAAGUUACGAAUAUUGAUAGA [JR_SSTheophyA_Sub003] | 123 nM | 198 nM | 143 nM |  | 
10 | UGGCAGCACCUCAUGUGCUGCCAAGGUGAUACCAGCAUCGAAAGAUGCCCUUGGCAGCACCAACAUGAGGAUCACCCAUGUAAUA [(MT)''-(M)'-(T')-(Theo)-(Ms2)_Design1/22_7] | 26.8 nM | 374 nM | 217 nM |  | 
11 | UUAACAUGAGGAUCACCCAUGUUUGAUGAAGGAGCGACCAGAGGGUCAGGUAGGUCGCAUCACAUGAGGAUCACCCAUGUCGCCC [DOUBLE!!! :-D #13] | 22.3 nM | 26 nM | 22.4 nM | 21.8 nM | 25.8 nM
12 | UGUACCUAGUCGGCCGCCACUCAAUAAUGAGAGGAUCACCCUCAUAAACGAGUCAAAGACUCGAUGAGGACCGGGACUAGGUACU [Palindromic MS2 2 #AlternativeMS2 #Palindrome #StaticStem] | 59.4 nM | 73.2 nM | 21.1 nM | 53 nM | 72.7 nM
13 | CUACAUUUGUAGAAACCGGUCAACAAUAUUCGAGGACCGGUACGGCCGCCACUCGUAUAAUUUAAUACAUGAGGAUCACCCAUGU [Tryptophan A 4] | 14.8 nM | 18.2 nM |  |  | 17.1 nM
14 | GCGAUGGAGCGAAGGAGCGUGCUAGUACAUGAGGAUCACCCAUGUGAGUCGCAGCGCUAAGCACAGGUAGGUCGCGCUCCAUCGC [EAB NP+V+V2 #12] | 31.1 nM | 26.8 nM | 40.5 nM | 48.4 nM | 49.7 nM
15 | CCUAUGCAGUCGGCCGCCACUGAACAUGAGGAUCACCCAUGUAAUUAAAAUUAAGAUCCUGAAAUCAGGACCGGGACUGUAUAGG [Ex Tryptophan B 4] | 25.5 nM | 280 nM | 196 nM | 1520 nM | 140 nM
16 | GCCGCGGCCGCGAUACACAUGGGUGUGUAACGAGGACCGGUACGGCCGCCACUCGAGAUGGCACAUGAGGAUCACCCAUGUGUGC [Exclusion Tryp A GF16] | 17.1 nM | 60.2 nM | 29.9 nM | 24.1 nM | 44.5 nM
17 | CUCUUGGCCGCAGUACGUUUAUAGACCUAUCGAGGACCGGUACGGCCGCCACUCGGUUAGUCACAUGAGGAUCACCCAUGUGUCC [theeternabot_exclusion_MS2_Trp_A_38] | 17 nM | 23 nM |  |  | 19.7 nM
18 | GGACUAACCAGAAGGAGCGACACAAGCAGAAACUGCAAUCCUCCGCACGAGGAUCACCCGUGUCAGGUAGGUCGCUGGUUAGUCG [ArgBX 28] | 57.5 nM | 96.8 nM | 67.4 nM | 63.7 nM | 96.8 nM
